{"source": "patent US20200040092A1", "about": "(YISSUM RESEARCH DEVELOPMENT COMPANY OF THE HEBREW …, published 2020)", "key": {"[1]": {"target": "T1, human PVR on cells (endogenous on HepG2 and other human tumor cell lines); full-length hPVR overexpressed in … (human, UniProt P15151 21-417)", "T1 sequence (looked up)": "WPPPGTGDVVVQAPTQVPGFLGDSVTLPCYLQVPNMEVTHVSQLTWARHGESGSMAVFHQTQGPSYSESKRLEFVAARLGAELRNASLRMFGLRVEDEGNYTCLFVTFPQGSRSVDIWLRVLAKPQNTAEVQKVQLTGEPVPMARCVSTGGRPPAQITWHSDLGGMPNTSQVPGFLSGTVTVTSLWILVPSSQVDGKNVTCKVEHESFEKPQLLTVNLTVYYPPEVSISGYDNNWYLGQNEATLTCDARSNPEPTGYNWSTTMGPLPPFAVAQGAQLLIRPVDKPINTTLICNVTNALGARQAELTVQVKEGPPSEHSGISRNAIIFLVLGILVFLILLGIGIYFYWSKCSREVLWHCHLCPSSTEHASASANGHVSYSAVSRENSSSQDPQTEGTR", "experiment": "cell-based or functional assay"}, "[2]": {"target": "T2, hNectin-2 on cells (CHO cells expressing hNectin-2); RPMI-8866 cells overexpressing hNectin-2; human tumor … (human, UniProt Q92692 32-538)", "T2 construct": "whole, on cells", "T2 sequence (looked up)": "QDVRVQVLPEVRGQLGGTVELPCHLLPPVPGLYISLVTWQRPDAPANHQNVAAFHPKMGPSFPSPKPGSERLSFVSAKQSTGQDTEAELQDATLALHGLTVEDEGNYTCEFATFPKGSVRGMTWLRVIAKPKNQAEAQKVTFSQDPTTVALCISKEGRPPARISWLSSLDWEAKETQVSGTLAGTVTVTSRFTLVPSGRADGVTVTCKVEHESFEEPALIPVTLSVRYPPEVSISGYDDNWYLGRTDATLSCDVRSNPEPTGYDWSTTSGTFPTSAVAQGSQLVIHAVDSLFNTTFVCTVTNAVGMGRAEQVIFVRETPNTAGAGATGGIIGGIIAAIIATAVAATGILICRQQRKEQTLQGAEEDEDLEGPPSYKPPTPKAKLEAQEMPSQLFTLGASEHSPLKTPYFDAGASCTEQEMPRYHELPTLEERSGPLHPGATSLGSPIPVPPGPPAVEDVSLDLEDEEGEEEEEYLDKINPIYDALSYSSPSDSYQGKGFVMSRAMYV", "experiment": "FACS on the CHO cells expressing hNectin-2 of FIG. 7C"}, "[3]": {"target": "T1, human PVR on cells (endogenous on HepG2 …)", "experiment": "cell-based or functional assay", "remark": "listed apart in the source"}, "[4]": {"target": "T3, human PVR on cells (endogenous on HepG2 and other human tumor cell lines; full-length hPVR overexpressed in B16 cells) (human), P15151", "T3 chain": "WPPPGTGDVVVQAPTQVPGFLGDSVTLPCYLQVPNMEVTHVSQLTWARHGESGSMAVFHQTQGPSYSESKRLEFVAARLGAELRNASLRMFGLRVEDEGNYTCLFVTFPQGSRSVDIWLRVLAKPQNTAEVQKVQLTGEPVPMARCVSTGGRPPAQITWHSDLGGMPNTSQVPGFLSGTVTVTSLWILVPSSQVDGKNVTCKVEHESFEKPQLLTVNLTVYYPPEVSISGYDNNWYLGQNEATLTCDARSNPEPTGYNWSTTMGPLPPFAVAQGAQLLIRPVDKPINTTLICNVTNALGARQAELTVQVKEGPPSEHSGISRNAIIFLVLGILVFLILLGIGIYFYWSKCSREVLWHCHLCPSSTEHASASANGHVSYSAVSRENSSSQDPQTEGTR", "experiment": "FACS on B16-hPVR cells, anti-human-IgG APC detection", "conditions": "remark: other sources report otherwise"}}}
{"binder": "anti-PVR monoclonal antibody 5B9 (antibody, mouse IgG1, V domains shown, also called hPVR.09; PVR.09) VH: QVQLQQSGAELMKPGASVKISCKATGYTFSNYWIEWIKQRPGHGLEWIGEIFPGSGRINFNEKFKGKATFTADTSSDTTYMQLSSLTSADSAVYYCARTKIYGNSFDYWGQGTTLTVSP VL: DIMMTQSHKFMSTSVGDRVNITCKASQDVGTAVVWYQQKPGQSPKLLIYWASSRHNGVPDRFTGSGSGTDFTLTISNVQSEDLSDYFCQQYSRYPLTFGAGTKLELK", "values": [{"measurement": "Percentage of dead cells within 24 hrs relative to mIgG treated cells (MTT), A549", "setting": "[1]", "result": 25, "unit": "%"}, {"measurement": "Percentage of dead cells within 24 hrs relative to mIgG treated cells (MTT), HCT-116", "setting": "[1]", "result": 22, "unit": "%"}, {"measurement": "Percentage of dead cells within 24 hrs relative to mIgG treated cells (MTT), MDA-MB-231", "setting": "[1]", "result": 20, "unit": "%"}, {"measurement": "Percentage of dead cells within 24 hrs relative to mIgG treated cells (MTT), Mel-624", "setting": "[1]", "result": 32, "unit": "%"}, {"measurement": "binding result", "setting": "[2]", "result": "no binding"}]}
{"binder": "anti-PVR monoclonal antibody 7D4 (antibody, mouse IgG1, V domains shown, also called hPVR.01; PVR.01) VH: EVQLQQSGPELVKPGASVKISCKTSGYTFTEYTMHWVKQSHGESLEWIGGIDPNNGGTNYNQNFKGKATLTVDKSSSTAYMELRSLTSEDSAVYYCAGVIPLEYWGQGTSVTVSS VL: DIVMTQSQKFMSTSVGDRVSVTCKASQNVYTNVAWYQQKPGQSPKALIYSASYRYRGVPDRFTGSGSGTDFTLTISNVQSEDLADYFCQQYNSYPLAFGSGTKLEIK", "values": [{"measurement": "NK cell killing of the human breast adenocarcinoma cell line MDA-MB-231 ([35S]-Methionine release, specific killing)", "setting": "[3]", "result": 2, "unit": "fold"}, {"measurement": "binding result", "setting": "[2]", "result": "no binding"}]}
{"binder": "Human TIGIT-Fc, Q495A1 22-141 (Fc fusion, UniProt Q495A1 22-141, looked up, not shown: a dimerising Fc or GST) MMTGTIETTGNISAEKGGSIILQCHLSSTTAQVTQVNWEQQDQLLAICNADLGWHISPSFKDRVAPGPGLGLTLQSLTVNDTGEYFCIYHTYPDGTYTGRIFLEVLESSVAEHGARFQIP", "values": [{"measurement": "fold signal against DNAM-1-Fc", "setting": "[4]", "result": "2 to 4", "unit": "fold"}]}
{"binder": "anti-PVR monoclonal antibody 4E5 (antibody, mouse IgG1, V domains shown, also called hPVR.07; PVR.07) VH: EVKLLESGGGLVQPGGSLKLSCAASGFDFSRYWMTWVRQAPGKGLEWIGEIHPDSSKINYTPSQKDKFIISRDNAKNTLFLQMSKVRFEDTALYFCARPDGNYNALDYWGQGTSVTVSS VL: DIVMTQSHKFMSTSVGDRVSITCKASQDVGTAVTWYQQKPGQSPKLLIYWASTRHTGVPDRFTGSESGTDFTLTISDVQSEDLANYFCQQYSRYPYTFGGGTKLEIK", "values": [{"measurement": "binding result", "setting": "[2]", "result": "no binding"}]}
